This passage reports Kd results from US20170166895.

For the series, the target named is Complement component 3 (C3) (Homo sapiens) (UniProt P01024+P01024). In words: filter. Conditions: 3'-3' idT.
The mark [1] stands for this setting: all U in listing = NapdU, SB18T0.01, 37C.
The mark [2] stands for this setting: all U = NapdU, T = dT, SB18T0.01, 37C.
Where [3] appears, read: all U in listing = NapdU, SB18T0.01 (5 mM MgCl2), 37C.

One may read the Kd as the free concentration of one partner at which half of the binding sites on the other are occupied at equilibrium, for simple one-to-one binding. Read a low Kd as tighter binding.

Chain of Complement component 3 (C3) (Homo sapiens) (P01024 23-667, chain 1 of 2): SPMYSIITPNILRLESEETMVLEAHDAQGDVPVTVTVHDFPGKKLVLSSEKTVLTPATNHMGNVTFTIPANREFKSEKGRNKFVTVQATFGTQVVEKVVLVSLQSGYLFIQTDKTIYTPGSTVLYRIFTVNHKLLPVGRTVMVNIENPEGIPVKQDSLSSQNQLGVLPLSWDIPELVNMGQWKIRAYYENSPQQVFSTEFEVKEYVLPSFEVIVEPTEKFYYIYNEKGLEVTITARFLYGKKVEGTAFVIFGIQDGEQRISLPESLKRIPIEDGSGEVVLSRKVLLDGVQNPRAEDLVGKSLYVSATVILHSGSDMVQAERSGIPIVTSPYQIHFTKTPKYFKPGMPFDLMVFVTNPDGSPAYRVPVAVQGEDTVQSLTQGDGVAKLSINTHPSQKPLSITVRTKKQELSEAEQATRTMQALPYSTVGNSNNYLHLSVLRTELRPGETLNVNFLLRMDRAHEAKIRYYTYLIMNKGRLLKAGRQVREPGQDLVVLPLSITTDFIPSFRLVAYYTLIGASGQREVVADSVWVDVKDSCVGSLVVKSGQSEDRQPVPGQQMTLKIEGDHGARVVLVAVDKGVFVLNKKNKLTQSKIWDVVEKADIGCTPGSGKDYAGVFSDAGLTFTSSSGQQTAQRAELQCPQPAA
Chain of Complement component 3 (C3) (Homo sapiens) (P01024 672-1663, chain 2 of 2): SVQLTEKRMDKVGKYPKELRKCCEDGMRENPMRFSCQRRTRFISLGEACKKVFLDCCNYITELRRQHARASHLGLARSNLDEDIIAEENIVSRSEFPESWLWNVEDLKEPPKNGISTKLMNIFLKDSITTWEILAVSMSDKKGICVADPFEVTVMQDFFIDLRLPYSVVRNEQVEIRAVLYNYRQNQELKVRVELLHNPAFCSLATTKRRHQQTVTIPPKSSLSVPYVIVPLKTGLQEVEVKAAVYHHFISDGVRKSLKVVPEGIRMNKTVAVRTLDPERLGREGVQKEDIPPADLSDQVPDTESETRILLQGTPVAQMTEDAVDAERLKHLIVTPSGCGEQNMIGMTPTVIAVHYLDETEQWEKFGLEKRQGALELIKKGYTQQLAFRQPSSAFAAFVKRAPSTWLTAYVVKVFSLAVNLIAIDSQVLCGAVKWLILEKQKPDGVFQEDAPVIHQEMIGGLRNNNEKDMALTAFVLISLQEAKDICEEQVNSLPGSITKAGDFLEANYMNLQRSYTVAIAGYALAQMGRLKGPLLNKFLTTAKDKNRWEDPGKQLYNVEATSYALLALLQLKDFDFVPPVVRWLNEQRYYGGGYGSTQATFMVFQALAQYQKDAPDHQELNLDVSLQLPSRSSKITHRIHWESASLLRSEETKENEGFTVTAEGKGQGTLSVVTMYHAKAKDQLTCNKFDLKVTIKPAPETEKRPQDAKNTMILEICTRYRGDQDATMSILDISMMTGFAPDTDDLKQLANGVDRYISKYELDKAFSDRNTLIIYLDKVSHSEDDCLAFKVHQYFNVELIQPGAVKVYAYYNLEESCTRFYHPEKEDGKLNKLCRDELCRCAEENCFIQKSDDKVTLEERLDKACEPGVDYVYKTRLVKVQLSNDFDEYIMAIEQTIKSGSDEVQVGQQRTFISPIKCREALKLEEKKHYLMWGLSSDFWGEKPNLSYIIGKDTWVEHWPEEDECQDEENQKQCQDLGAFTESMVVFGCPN

Under setting [1], “ACTCCACGGUGACUCCAUAGUCCGUACGUUCCCGCGGACGCACCGAGGA [8491-388_3]” showed a Kd of 0.71 nM.

“ACTCCAGACUGUAGUUGACUCCAUAGUCCGUACGUUUACACAUUGGAGGA [8491-189_3]” came in with a Kd under setting [1] of 0.0335 nM. Sequence “ACTCCAGCAACUUGACUCAAUAGUCCGUACGUUUAUGCGAGAACAGAGGA [8491-386_3]” returned a Kd under setting [1] of 0.104 nM.

For “ACTCCAUGUCGGCGUUUGACUCAAUAGUCCGUACGUUUGGCCGGGCAGGGGAGGA [8491-405_3]”, the Kd under setting [1] was determined as 0.159 nM. With “ACTCCAUGUCGGCGUUUGGCUCAAUAGUCCGUACGUUUUACGCGUGAGGA [8491-389_3]”, the Kd under setting [1] was 0.0295 nM. “ACTCCCAAGCCUCUCGGUUUGGCUAAAUAGUCCGUACGUUUUCACGAGGA [8491-408_3]” came in with a Kd under setting [1] of 0.161 nM.

Regarding “ACTCCCCGGTGACUCAAUAGUCCGUACGUUCCCGGUCCGAACGCGGAGGA [8491-94_11]”, under setting [2], the Kd worked out at 29.5 nM. Under setting [2], “ACTCCCCGGUGACTCAAUAGUCCGUACGUUCCCGGUCCGAACGCGGAGGA [8491-94_12]” showed a Kd of 8.57 nM. The same measure, in the same setting: as for “ACTCCCCGGUGACUCAATAGUCCGUACGUUCCCGGUCCGAACGCGGAGGA [8491-94_13]”, the figure is 41.7 nM; as for “ACTCCCCGGUGACUCAAUAGUCCGUACGTUCCCGGUCCGAACGCGGAGGA [8491-94_16]”, 69.4 nM; as for “ACTCCCCGGUGACUCAAUAGUCCGUACGUTCCCGGUCCGAACGCGGAGGA [8491-94_17]”, 2.88 nM. In the case of “ACTCCCCGGUGACUCAAUAGUCCGUACGUU [8491-94_21]”, the Kd (all U = NapdU, SB18T0.01, 37C) was 0.249 nM. On to “ACTCCCCGGUGACUCAAUAGUCCGUACGUUCC [8491-94_20]”, for which the Kd (all U = NapdU, SB18T0.01, 37C) was 1.14 nM. Sequence “ACTCCCCGGUGACUCAAUAGUCCGUACGUUCCCGG [8491-94_19]” showed a Kd (all U = NapdU, SB18T0.01, 37C) of 0.0559 nM.

On to “ACTCCCCGGUGACUCAAUAGUCCGUACGUUCCCGGTCCGAACGCGGAGGA [8491-94_18]”, for which the Kd under setting [2] was 0.0421 nM. “ACTCCCCGGUGACUCAAUAGUCCGUACGUUCCCGGUCC [8491-94_7]”: the Kd (all U = NapdU, SB18T0.01, 37C) was determined as 0.0194 nM.

For the sequence “ACTCCCCGGUGACUCAAUAGUCCGUACGUUCCCGGUCCGAA [8491-94_6]”, for the setting “all U = NapdU, SB18T0.01, 37C”, the Kd was found to be 0.019 nM. Consider “ACTCCCCGGUGACUCAAUAGUCCGUACGUUCCCGGUCCGAACGC [8491-94_5]”, for which the Kd (all U = NapdU, SB18T0.01, 37C) is 0.0298 nM. Sequence “ACTCCCCGGUGACUCAAUAGUCCGUACGUUCCCGGUCCGAACGCGGA [8491-94_4]” came in with a Kd (all U = NapdU, SB18T0.01, 37C) of 0.0291 nM.

“ACTCCCCGGUGACUCAAUAGUCCGUACGUUCCCGGUCCGAACGCGGAGGA [8491-94_3]” came in with a Kd under setting [3] of 0.0313 nM.

Under setting [1], “ACTCCCCGGUGACUCAAUAGUCCGUACGUUUGGCCGGGCAGGGGAGGA [8491-395_3]” came in with a Kd of 3.52 nM. Regarding “ACTCCCUAACACGGCCGAGUUGACUCCCAUAGUCCGUACGUUUGCGAGGA [8491-387_3]”, the Kd under setting [1] turned out to be 0.519 nM.

“ACTCCCUAUGAGGGCUGAUUCAAUAGUCAGUACGUUCGCCCCAUCGAGGA [8491-399_3]” returned a Kd under setting [1] of 8.61 nM. On the same count and under the same terms, the figure for “ACTCCCUUAAAAGGGUCGUUGACUCCAUAGUCCGUACGUUUCCGAGAGGA [8491-394_3]” is 0.448 nM. The sequence “ACTCCGAGCAUUGACUCAAUAGUCCGUACGUUCCCGGUCUGAACGUGGAGGA [8491-406_3]” returned a Kd under setting [1] of 2.47 nM.

Consider “ACTCCGAGCAUUGACUCAAUAGUCCGUACGUUUGGCCCGUUCACAAGGAGGA [8491-393_3]”, for which the Kd under setting [1] worked out at 0.25 nM. “ACTCCGAGCAUUGACUCAAUAGUCCGUACGUUUGGCCGGGCAGGGGAGGA [8491-3_3]” showed a Kd under setting [3] of 0.119 nM.

Consider “ACTCCGAGCAUUGACUCAAUAGUCCGUACGUUUUACGCGUGAGGA [8491-407_3]”, for which the Kd under setting [1] was found to be 0.208 nM. On to “ACTCCGAGCAUUGACUCAAUAGUCCGUACGUUUUUGACCGGGGCAGGGGGAGGA [8491-385_3]”, for which the Kd (all U in listing = NapdU, printed as 1.46-10, SB18T0.01, 37C) was determined as 0.146 nM.

In turn, “ACTCCGAGCAUUGACUCAAUAGUCCGUACGUUUUUUUGGGCCGGGGGGGCAGGAGGA [8491-403_3]” had a Kd (all U in listing = NapdU, printed as 1.53-10, SB18T0.01, 37C) of 0.153 nM. The sequence “ACTCCGAGCUUUUUUGACUCAAUUAGUCCGUACGUUUUUUGGCCGGGCAGGGGAGGA [8491-404_3]” had a Kd under setting [1] of 0.185 nM. Under setting [1], “ACTCCGUCUGGCUAACUUAGUCCGUACGUUCGUGAGCGUGAUUAUGAGGA [8491-397_3]” yielded a Kd of 3.11 nM. Regarding “ACTCCUACAAAGCGAUUGGCUCGAUAGUCAGUACGUUUCUCGCUCGAGGA [8491-390_3]”, the Kd under setting [1] amounted to 0.412 nM. In the case of “ACTCCUACGGUUGGCUCCAUAGUCAGUACGUUUACGAUACCCCGAGGA [8491-282_3]”, the equilibrium dissociation constant (Kd) under setting [1] worked out at 0.27 nM.

With “ACTCCUCCCACACGACGAAUUUGACUCAAUAGUCCGUACGUUUUAGAGGA [8491-402_3]”, under setting [1], the Kd turned out to be 0.0739 nM.

For the sequence “ACTCCUCCCUUUGGCUCGAUAGUCGGUACGUUUUGGGGAGGCGUGGAGGA [8491-409_3]”, the Kd under setting [1] was 0.316 nM. Still for that read-out and setting: as for “ACTCCUGUUGACUCACAUAGUCCGUACGUUUACGGCAAUAGCACAGAGGA [8491-396_3]”, the figure is 0.311 nM; as for “ACTCCUUGACUCGAUAGUCCGUACGUUUGCGGAAUACCAGCUGACGAGGA [8491-400_3]”, 1.2 nM. Turning to “CCCCGGUGACUCAAUAGUCCGUACGUUCCCGG [8491-94_25]”, where the note is “all U = NapdU, SB18T0.01, 37C”, the Kd was found to be 0.0928 nM. For “CCCCGGUGACUCAAUAGUCCGUACGUUCCCGGUCC [8491-94_24]”, the Kd (all U = NapdU, SB18T0.01, 37C) worked out at 0.0535 nM.

“CCCCGGUGACUCAAUAGUCCGUACGUUCCCGGUCCGAACGCGGAGGA [8491-94_8]” registered a Kd (all U = NapdU, SB18T0.01, 37C) of 0.0369 nM. The same measure, in the same setting: as for “CCCGGUGACUCAAUAGUCCGUACGUUCCCGGUCCGAACGCGGAGGA [8491-94_22]”, the figure is 0.103 nM.

In the case of “CCGGUACUCAAUAGUCCGUACGUUCCCGG [8491-94_34]”, where the note is “all U = NapdU, C3-spacer replaces G6, SB18T0.01, 37C”, the Kd is 14.1 nM. For the setting “all U = NapdU, C3-spacer replaces C10, SB18T0.01, 37C”, “CCGGUGACUAAUAGUCCGUACGUUCCCGG [8491-94_37]” came in with a Kd of 0.0922 nM.

Take “CCGGUGACUCAAUAGUCCGUACGUUCCC [8491-94_28]”: the Kd (all U = NapdU, printed as 2.65-10, SB18T0.01, 37C) was 0.265 nM.

“CCGGUGACUCAAUAGUCCGUACGUUCCCG [8491-94_51]” had a Kd (all U = NapdU, C3-spacer replaces G29, SB18T0.01, 37C) of 0.227 nM.

For the sequence “CCGGUGACUCAAUAGUCCGUACGUUCCCG [8491-94_52]”, the Kd (all U = NapdU, C3-spacer replaces G30, SB18T0.01, 37C) came to 0.0504 nM. Under “all U = NapdU, SB18T0.01, 37C”, “CCGGUGACUCAAUAGUCCGUACGUUCCCGGUCCGAACGCGGAGGA [8491-94_23]” yielded a Kd of 0.0621 nM. For the sequence “CCGGUGACUCAAUAGUCCGUACGUUCCGG [8491-94_48]”, the dissociation constant (Kd) (all U = NapdU, C3-spacer replaces C26, SB18T0.01, 37C) was determined as 0.0302 nM. “CCGGUGACUCAAUAGUCCGUACGUUCCGG [8491-94_49]” displayed a Kd (all U = NapdU, C3-spacer replaces C27, SB18T0.01, 37C) of 0.266 nM. In the case of “CCGGUGACUCAAUAGUCCGUACGUUCCGG [8491-94_50]”, the Kd (all U = NapdU, C3-spacer replaces C28, SB18T0.01, 37C) is 0.448 nM.

“CCGGUGACUCAAUAGUCCGUCGUUCCCGG [8491-94_45]” had a Kd (all U = NapdU, C3-spacer replaces A21, SB18T0.01, 37C) of 228 nM. Take “CCGGUGACUCAAUAGUCCUACGUUCCCGG [8491-94_44]”: the Kd (all U = NapdU, C3-spacer replaces G19, SB18T0.01, 37C) amounted to 1.28 nM.

Turning to “CCGGUGACUCAAUAGUCGUACGUUCCCGG [8491-94_42]”, the Kd (all U = NapdU, C3-spacer replaces C17, SB18T0.01, 37C) is 0.86 nM. Consider “CCGGUGACUCAAUAGUCGUACGUUCCCGG [8491-94_43]”, for which the Kd (all U = NapdU, C3-spacer replaces C18, SB18T0.01, 37C) was 0.0142 nM. Consider “CCGGUGACUCAAUAUCCGUACGUUCCCGG [8491-94_41]”, for which, where the note is “all U = NapdU, C3-spacer replaces G15, SB18T0.01, 37C”, the Kd turned out to be 0.598 nM. Under “all U = NapdU, C3-spacer replaces A14, SB18T0.01, 37C”, “CCGGUGACUCAAUGUCCGUACGUUCCCGG [8491-94_40]” came in with a Kd of 1.99 nM. On to “CCGGUGACUCAUAGUCCGUACGUUCCCGG [8491-94_38]”, for which, where the note is “all U = NapdU, C3-spacer replaces A11, SB18T0.01, 37C”, the Kd is 0.148 nM. Consider “CCGGUGACUCAUAGUCCGUACGUUCCCGG [8491-94_39]”, for which, for the setting “all U = NapdU, C3-spacer replaces A12, SB18T0.01, 37C”, the Kd was determined as 0.31 nM. Take “CCGGUGAUCAAUAGUCCGUACGUUCCCGG [8491-94_36]”: the Kd (all U = NapdU, C3-spacer replaces C8, SB18T0.01, 37C) amounted to 0.0315 nM. “CCGGUGCUCAAUAGUCCGUACGUUCCCGG [8491-94_35]” registered a Kd (all U = NapdU, C3-spacer replaces A7, SB18T0.01, 37C) of 5.67 nM.

Sequence “CCGUGACUCAAUAGUCCGUACGUUCCCGG [8491-94_32]” gave a Kd (all U = NapdU, C3-spacer replaces G3, SB18T0.01, 37C) of 0.78 nM. Take “CCGUGACUCAAUAGUCCGUACGUUCCCGG [8491-94_33]”: the Kd (all U = NapdU, C3-spacer replaces G4, SB18T0.01, 37C) stood at 0.245 nM. “CGGUGACUCAAUAGUCCGUACGUUCCCG [8491-94_59]” registered a Kd (P = NapdU (all U), 2'-OMe C1, SB18T0.01, 5 mM MgCl2, 37 C) of 0.0342 nM. For the setting “P = NapdU (all U), 2'-OMe G2, SB18T0.01, 5 mM MgCl2, 37 C”, “CGGUGACUCAAUAGUCCGUACGUUCCCG [8491-94_60]” registered a Kd of 0.0537 nM. For the sequence “CGGUGACUCAAUAGUCCGUACGUUCCCG [8491-94_61]”, where the note is “P = NapdU (all U), 2'-OMe G3, SB18T0.01, 5 mM MgCl2, 37 C”, the Kd was determined as 0.0237 nM.

In the case of “CGGUGACUCAAUAGUCCGUACGUUCCCG [8491-94_62]”, the Kd (P = NapdU (all U), 2'-OMe P4, SB18T0.01, 5 mM MgCl2, 37 C) amounted to 0.0918 nM. Regarding “CGGUGACUCAAUAGUCCGUACGUUCCCG [8491-94_63]”, where the note is “P = NapdU (all U), 2'-OMe G5, SB18T0.01, 5 mM MgCl2, 37 C”, the Kd came to 0.0268 nM.
